The target of this assay is T1, recombinant human LPHN2 lectin-olfactomedin-like-GAIN/GPS domain, residues F26-R796 (human), O95490.
T1 chain: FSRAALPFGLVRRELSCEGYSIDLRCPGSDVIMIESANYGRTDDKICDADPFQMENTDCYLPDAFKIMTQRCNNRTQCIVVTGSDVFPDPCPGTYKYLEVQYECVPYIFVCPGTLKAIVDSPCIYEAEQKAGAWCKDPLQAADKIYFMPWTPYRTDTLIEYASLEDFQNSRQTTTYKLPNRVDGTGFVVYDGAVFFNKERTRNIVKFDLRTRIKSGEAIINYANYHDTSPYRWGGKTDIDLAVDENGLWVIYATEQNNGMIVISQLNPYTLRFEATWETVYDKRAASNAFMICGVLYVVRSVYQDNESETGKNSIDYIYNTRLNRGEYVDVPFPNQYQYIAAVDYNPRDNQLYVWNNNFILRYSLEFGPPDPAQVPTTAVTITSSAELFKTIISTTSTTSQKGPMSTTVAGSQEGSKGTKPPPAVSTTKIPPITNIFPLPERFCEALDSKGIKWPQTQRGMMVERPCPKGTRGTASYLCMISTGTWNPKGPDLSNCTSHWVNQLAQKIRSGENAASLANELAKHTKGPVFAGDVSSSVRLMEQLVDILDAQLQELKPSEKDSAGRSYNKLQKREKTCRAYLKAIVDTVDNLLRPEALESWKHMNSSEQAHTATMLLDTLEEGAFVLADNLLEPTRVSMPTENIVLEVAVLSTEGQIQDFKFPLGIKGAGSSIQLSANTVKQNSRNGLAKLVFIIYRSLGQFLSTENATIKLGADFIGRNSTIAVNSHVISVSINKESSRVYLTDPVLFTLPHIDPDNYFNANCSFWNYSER
Briefly: solid-phase binding (ELISA). To be noted: ligand; chains chain; N-linked glycans removed with PNGase F (sites N79, N186, N269, N325 on SEQ ID NO: 1); remark: other sources report otherwise. (In general: ELISA stands for enzyme-linked immunosorbent assay.)

B1: deglycosylated LRG1 (LRG1 treated with PNGase F), P02750 36-347 (protein)
chain: VTLSPKDCQVFRSDHGSSISCQPPAEIPGYLPADTVHLAVEFFNLTHLPANLLQGASKLQELHLSSNGLESLSPEFLRPVPQLRVLDLTRNALTGLPPGLFQASATLDTLVLKENQLEVLEVSWLHGLKALGHLDLSGNRLRKLPPGLLANFTLLRTLDLGENQLETLPPDLLRGPLQLERLHLEGNKLQVLGKDLLLPQPDLRYLFLNGNKLARVAAGAFQGLRQLDMLDLSNNSLASVPEGLWASLGQPNWDMRDGFDISGNPWICDQNLSDLYRWLQAQKDKMFSQNDTRCAGPEAVKGQTLLAVAKSQ
One may read the Kd as the equilibrium constant for the complex coming apart. As for B1, the dissociation constant (Kd) came out at 840 nM.
